Source: publication PMC7537338, “CD47/SIRPα blocking peptide identification and synergistic effect with irradiation for cancer immunotherapy” (Journal for Immunotherapy of Cancer, 2020)

Assays:
[1] = target: human CD47-IgV-Domain protein (human), Q08722; test: MST; human or mouse CD47-IgV-Domain protein labeled with NT-647, about 50 to 200 nM; unlabeled peptides or ligand protein diluted serially; 50 mM Tris, 150 mM NaCl, 10 mM MgCl2, 0.05% Tween-20, 0.5% DMSO, pH 7.5; 30 min at room temperature; 25°C
[2] = target: T1, mouse CD47-IgV-Domain protein (mouse), Q61735; test: as above
T1 chain: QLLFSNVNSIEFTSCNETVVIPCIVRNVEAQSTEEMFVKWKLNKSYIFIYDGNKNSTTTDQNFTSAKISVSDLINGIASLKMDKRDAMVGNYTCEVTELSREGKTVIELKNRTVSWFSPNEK

[3] = target: human CD47-IgV-Domain-hIg fusion protein (human), Q08722; test: flow cytometry on cells; competition: CD47-IgV-Domain-hIg (20 nM) incubated with titrating concentrations of peptide in PBS pH 7.4 for 1 hour at 4°C, then on SIRPα-overexpressing CHO cells 30 min at 4°C; PE-conjugated goat anti-human IgG; IC50 from sigmoidal dose response curves
[4] = target: T2, mouse CD47-IgV-Domain-hIg fusion protein (mouse), Q61735; test: as above
T2 chain: T1 chain

Chain of human CD47-IgV-Domain protein (human), Q08722 (Q08722 19-141): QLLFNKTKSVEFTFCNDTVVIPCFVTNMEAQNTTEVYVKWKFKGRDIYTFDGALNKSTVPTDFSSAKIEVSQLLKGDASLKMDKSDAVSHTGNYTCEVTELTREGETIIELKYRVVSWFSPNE
Chain of human CD47-IgV-Domain-hIg fusion protein (human), Q08722 (Q08722 19-141): as above

B1: pep-20 (peptide)
chain: AWSATWSNYWRH
modifications: not checked
Kd [1]: 2.91 µM
Kd [2]: 3.63 µM
IC50 [3]: 24.6 µM
IC50 [4]: 12 µM
